According to patent US7250195B1, “Molecular plasma deposition of colloidal materials” (Ionic Fusion Corporation, priority 2006, dated 2007):
Converted amounts (≈) assume the structure as drawn.

How the values were obtained:
[1] = cited from earlier work
[2] = activity of the catalase colloidal suspension before deposition; format: biochemical, bovine; conditions: colloidal suspension in water with 0.1% thymol, protein 33 mg/ml
Method: 25 ml of a 2× crystallized bovine liver catalase (Sigma C100-58MG; 056K7010) colloidal suspension in water with 0.1% thymol was prepared. Protein concentration was 33 mg/ml with an activity of 4.1×10^4 U/ml.

[3] = catalysis of 5% hydrogen peroxide solution by plasma-deposited catalase coating; format: biochemical, bovine; conditions: for catalytic activity after molecular plasma deposition: deposited 10 min on aluminum oxide disk, placed in 5% hydrogen peroxide
Source text: Using the apparatus illustrated in FIG. 2, the high voltage power supply was attached to a 304 stainless steel, 18 gauge needle set at −5000V. The substrate was an aluminum oxide disk ¼″ thick by 1.5″ in diameter, having an area of approximately 11 sq cm and set at a potential of 5000 V. The substrate was centered and placed 5 cm from the hole in the chamber. The chamber was pumped to 40 mTorr and the flow of the colloidal suspension initiated. The deposition onto the substrate was allowed to proceed for 10 minutes. At the end of the deposition process, the substrate was removed from the chamber and the sample was placed in a 5% solution of hydrogen peroxide.
The deposition was repeated twice under the same conditions, except that after the substrate was removed from the chamber, the samples were placed in an ultrasonic water bath for 10 min. Additionally, one of the samples was maintained at 10° C. for 72 hr after removal from the bath.

For Nc1ncnc2nc[nH]c12 [adenine], the water solubility [1] is listed as 500 µg/mL (≈ 3.7 mM).

For NCCCC[C@H](N)C(=O)O [Lysine], the “water solubility (in words)” value [1] is given as “highly water soluble”.

In the case of Nc1nc2nc[nH]c2c(=O)[nH]1 [guanine], the water solubility [1] is listed as “insoluble”.

In the case of Nc1cc[nH]c(=O)n1 [cytosine], the water solubility [1] is listed as “insoluble”.

B1: catalase: 2× crystallized bovine liver catalase (Sigma C100-58MG; 056K7010), a polypeptide enzyme (protein, UniProt P00432 2-527, looked up)
Catalase: ADNRDPASDQMKHWKEQRAAQKPDVLTTGGGNPVGDKLNSLTVGPRGPLLVQDVVFTDEMAHFDRERIPERVVHAKGAGAFGYFEVTHDITRYSKAKVFEHIGKRTPIAVRFSTVAGESGSADTVRDPRGFAVKFYTEDGNWDLVGNNTPIFFIRDALLFPSFIHSQKRNPQTHLKDPDMVWDFWSLRPESLHQVSFLFSDRGIPDGHRHMNGYGSHTFKLVNANGEAVYCKFHYKTDQGIKNLSVEDAARLAHEDPDYGLRDLFNAIATGNYPSWTLYIQVMTFSEAEIFPFNPFDLTKVWPHGDYPLIPVGKLVLNRNPVNYFAEVEQLAFDPSNMPPGIEPSPDKMLQGRLFAYPDTHRHRLGPNYLQIPVNCPYRARVANYQRDGPMCMMDNQGGAPNYYPNSFSAPEHQPSALEHRTHFSGDVQRFNSANDDNVTQVRTFYLKVLNEEQRKRLCENIAGHLKDAQLFIQKKAVKNFSDVHPEYGSRIQALLDKYNEEKPKNAVHTYVQHGSHLSAREKANL
In the case of B1, the activity of suspension [2] is reported as 4.1×10^4 U/ml, the “catalytic activity after deposition and ultrasonic water bath” value ([3]; coated sample in ultrasonic water bath 10 min, then 5% hydrogen peroxide) is reported as “produced bubbling of oxygen from the surface of the substrate” and the “catalytic activity after molecular plasma deposition” value [3] is reported as “producing bubbling of oxygen from the surface”. The “catalytic activity after molecular plasma deposition” value ([3]; listed as Catalase) was “without loss of catalytic activity” and the “catalytic activity after deposition, ultrasonic water bath and storage” value ([3]; ultrasonic water bath 10 min, then 10° C. for 72 hr, then 5% hydrogen peroxide) was “produced bubbling of oxygen from the surface of the substrate”.
